# Data taken from publication PMC6053418, “CTC1-STN1 terminates telomerase while STN1-TEN1 enables C-strand synthesis during telomere replication in colon cancer cells”.
# What was measured:
# CST (CTC1-STN1-TEN1) [1] = target: T1, CST (CTC1-STN1-TEN1) (Homo sapiens, UniProt Q2NKJ3;Q9H668;Q86WV5 1-1217;1-368;1-123); test: EMSA; apparent Kd; EMSA: 25 mM Tris-HCl pH 8.0, 100 mM NaCl, 1 mM DTT; 0.1 nM DNA, 30 min RT (Kd(app): 0.01 nM DNA, 18 h, 4 °C). smFRET: 25 mM Tris-HCl pH 8.0, 150 mM NaCl, 1 mM D; details: protein: recombinant; tags: FLAG-CTC1, FLAG-STN1, untagged TEN1; copies: 1;1;1; label: 32P
# T1 sequence (Q2NKJ3 whole entry, chain 1 of 3): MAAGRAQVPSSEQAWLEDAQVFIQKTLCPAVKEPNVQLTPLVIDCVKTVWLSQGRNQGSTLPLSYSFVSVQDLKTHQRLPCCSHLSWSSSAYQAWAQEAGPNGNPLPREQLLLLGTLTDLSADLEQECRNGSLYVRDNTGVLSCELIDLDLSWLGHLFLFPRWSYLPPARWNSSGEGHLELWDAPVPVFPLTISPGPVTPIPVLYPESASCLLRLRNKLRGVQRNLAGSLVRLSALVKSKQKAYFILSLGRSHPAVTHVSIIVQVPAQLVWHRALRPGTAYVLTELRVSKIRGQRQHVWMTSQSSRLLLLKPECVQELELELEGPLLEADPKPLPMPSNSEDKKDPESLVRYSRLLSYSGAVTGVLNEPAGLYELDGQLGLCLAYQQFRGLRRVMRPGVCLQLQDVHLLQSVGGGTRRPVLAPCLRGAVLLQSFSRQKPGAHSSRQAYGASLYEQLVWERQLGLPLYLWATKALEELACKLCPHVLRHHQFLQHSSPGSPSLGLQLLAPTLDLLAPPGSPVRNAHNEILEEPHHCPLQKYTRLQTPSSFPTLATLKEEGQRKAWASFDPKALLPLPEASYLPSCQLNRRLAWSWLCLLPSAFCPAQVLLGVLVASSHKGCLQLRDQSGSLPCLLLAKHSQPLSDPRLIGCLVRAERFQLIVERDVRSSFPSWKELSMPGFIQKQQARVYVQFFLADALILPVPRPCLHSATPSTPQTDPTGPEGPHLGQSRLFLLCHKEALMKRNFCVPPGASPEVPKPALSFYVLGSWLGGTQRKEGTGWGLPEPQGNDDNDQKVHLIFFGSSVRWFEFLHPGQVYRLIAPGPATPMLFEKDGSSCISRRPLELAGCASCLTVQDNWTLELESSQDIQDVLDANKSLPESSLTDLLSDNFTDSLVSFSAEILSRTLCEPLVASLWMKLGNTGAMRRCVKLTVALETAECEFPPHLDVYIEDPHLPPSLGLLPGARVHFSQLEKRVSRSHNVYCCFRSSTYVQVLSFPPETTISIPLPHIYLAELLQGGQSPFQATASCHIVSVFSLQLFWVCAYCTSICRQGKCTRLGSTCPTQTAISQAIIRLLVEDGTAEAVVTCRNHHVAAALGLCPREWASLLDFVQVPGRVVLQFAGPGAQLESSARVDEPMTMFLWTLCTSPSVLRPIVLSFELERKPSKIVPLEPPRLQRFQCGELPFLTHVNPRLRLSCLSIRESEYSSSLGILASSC
# T1 sequence (Q9H668 whole entry, chain 2 of 3): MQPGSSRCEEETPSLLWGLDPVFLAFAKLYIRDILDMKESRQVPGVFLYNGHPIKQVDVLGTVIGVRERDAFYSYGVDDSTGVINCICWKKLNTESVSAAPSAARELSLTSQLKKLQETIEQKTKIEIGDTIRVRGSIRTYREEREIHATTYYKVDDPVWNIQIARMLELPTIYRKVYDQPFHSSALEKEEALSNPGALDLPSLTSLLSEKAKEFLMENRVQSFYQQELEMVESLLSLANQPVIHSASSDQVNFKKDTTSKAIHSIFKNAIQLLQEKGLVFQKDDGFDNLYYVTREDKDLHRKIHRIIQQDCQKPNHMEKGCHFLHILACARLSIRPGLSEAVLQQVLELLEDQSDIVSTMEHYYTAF
# T1 sequence (Q86WV5 whole entry, chain 3 of 3): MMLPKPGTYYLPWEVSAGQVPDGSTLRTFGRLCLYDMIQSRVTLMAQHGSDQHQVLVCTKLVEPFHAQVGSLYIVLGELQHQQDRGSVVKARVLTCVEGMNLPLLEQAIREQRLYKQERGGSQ
# CS (CTC1-STN1) [2] = target: T2, CS (CTC1-STN1) (Homo sapiens, UniProt Q2NKJ3;Q9H668 1-1217;1-368); test: as above; details: protein: recombinant; tags: FLAG-CTC1, FLAG-STN1; copies: 1;1; label: 32P
# T2 sequence (Q2NKJ3 whole entry, chain 1 of 2): as the sequence (Q2NKJ3 whole entry, chain 1 of 3) above
# T2 sequence (Q9H668 whole entry, chain 2 of 2): as the sequence (Q9H668 whole entry, chain 2 of 3) above
# CST (CTC1-STN1-TEN1) [3] = target: T1, CST (CTC1-STN1-TEN1); test: EMSA; EMSA: 25 mM Tris-HCl pH 8.0, 100 mM NaCl, 1 mM DTT; 0.1 nM DNA, 30 min RT (Kd(app): 0.01 nM DNA, 18 h, 4 °C). smFRET: 25 mM Tris-HCl pH 8.0, 150 mM NaCl, 1 mM D; details: protein: recombinant; tags: FLAG-CTC1, FLAG-STN1, untagged TEN1; copies: 1;1;1; label: 32P; hairpin, 15 bp stem, T5 loop, 3' overhang 18 nt
# CS (CTC1-STN1) [4] = target: T2, CS (CTC1-STN1); test: EMSA; about 5-fold less efficient than CST; EMSA: 25 mM Tris-HCl pH 8.0, 100 mM NaCl, 1 mM DTT; 0.1 nM DNA, 30 min RT (Kd(app): 0.01 nM DNA, 18 h, 4 °C). smFRET: 25 mM Tris-HCl pH 8.0, 150 mM NaCl, 1 mM D; details: protein: recombinant; tags: FLAG-CTC1, FLAG-STN1; copies: 1;1; label: 32P; hairpin, 15 bp stem, T5 loop, 3' overhang 18 nt
# CST (CTC1-STN1-TEN1) [5] = target: T1, CST (CTC1-STN1-TEN1); test: smFRET; 2 nM protein; dwell time 14.32 ± 0.81 (s; assigned from figure text); EMSA: 25 mM Tris-HCl pH 8.0, 100 mM NaCl, 1 mM DTT; 0.1 nM DNA, 30 min RT (Kd(app): 0.01 nM DNA, 18 h, 4 °C). smFRET: 25 mM Tris-HCl pH 8.0, 150 mM NaCl, 1 mM D; details: protein: recombinant; tags: FLAG-CTC1, FLAG-STN1, untagged TEN1; copies: 1;1;1; label: strand 1 3'-Cy3; strand 2 5'-Cy5 and 3'-biotin; 18 bp duplex, 3' overhang 18 nt
# CS (CTC1-STN1) [6] = target: T2, CS (CTC1-STN1); test: smFRET; 2 nM protein, imaged immediately; dwell time 8.22 ± 0.64 (s; assigned from figure text), 43% lower than CST; lost after flushing; EMSA: 25 mM Tris-HCl pH 8.0, 100 mM NaCl, 1 mM DTT; 0.1 nM DNA, 30 min RT (Kd(app): 0.01 nM DNA, 18 h, 4 °C). smFRET: 25 mM Tris-HCl pH 8.0, 150 mM NaCl, 1 mM D; details: protein: recombinant; tags: FLAG-CTC1, FLAG-STN1; copies: 1;1; label: strand 1 3'-Cy3; strand 2 5'-Cy5 and 3'-biotin; 18 bp duplex, 3' overhang 18 nt
Binder,Kd (CST (CTC1-STN1-TEN1) [1]) [pM],Kd (CS (CTC1-STN1) [2]) [pM],also measured
GGTTAGGGTTAGGGTTAG (ssDNA) [Tel-18],210 ± 70,1040 ± 460,
GGTTAGGGTTAGGGTTAGGGTTAGGGTTAGGGTTAG (ssDNA) [Tel-36],20 ± 30,330 ± 80,
AGCGTATCCGTTCAGTTGAGCGTATCCGTTCAGTTGAGCGTATCCGTT (ssDNA) [NonTel-48],10 ± 5,80 ± 50,
NonTel fold-back 18 nt 3' overhang (structured_DNA) DNA: ACGACTGCATCTAGCTTTTTGCTAGATGCAGTCGTAGCGTATCCGTTCAGTTG,,,binding result (CST (CTC1-STN1-TEN1) [3]): binds; binding result (CS (CTC1-STN1) [4]): binds
"smFRET junction, 18 nt overhang (dsDNA) DNA 1: TGGCGACGGCAGCGAGGCAGCGTATCCGTTCAGTTG DNA 2: GCCTCGCTGCCGTCGCCA",,,binding result (CST (CTC1-STN1-TEN1) [5]): binds; binding result (CS (CTC1-STN1) [6]): binds
